B1: CPEB3 Ribozyme (parent)
chain: UAACAGGGGGCCACAGCAGAAGCGUUCACGUCGCAGCCCCUGUCAGAUUCUGGUGAAUCUGCGAAUUCUGCUGUAUAUCUC

This data set covers variants of B1. Nature of the data set: self-cleavage, relative activity (ratio to wild type); higher = more cleavage; in vitro, sequencing. In a few lines:
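Relative activity was defined as the cleaved/total read fraction for a variant divided by the same fraction for the unmutated ribozyme. CPEB3 self-cleaving ribozyme libraries were made by rounds of error-prone PCR, barcoded, and transcribed in vitro with T7 RNA polymerase for 5 hours at 37°C, and cleavage ran through transcription plus a 15 min DNase I step before EDTA. Illumina sequencing of template-switched reverse transcripts gave the reads, and DNA sequencing mapped the barcodes. Averages come from three batches, using variants with at least 5 reads.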
For the variant G36A C62A, the self-cleavage stood at 0.41.

A35U U66A: the self-cleavage was 0.34.

With A35U U66G, the self-cleavage is 0.13.

For A35U U66C, the self-cleavage amounted to 0.25.

A35G U43C: the self-cleavage is 1.22.

As for A35G U43G, the self-cleavage was 0.36.

Turning to A35G U43A, the self-cleavage was found to be 1.28.

Regarding G36A A47G, the self-cleavage was 0.34.

Turning to G36A A47U, the self-cleavage was found to be 0.13.

Take A35U A77G: the self-cleavage amounted to 0.57.

With A35U A77U, the self-cleavage stood at 0.59.

Turning to G36U U67A, the self-cleavage came out at 0.64.

Consider A35G G46A, for which the self-cleavage worked out at 0.96.

Turning to A35G G46C, the self-cleavage worked out at 1.12.

Take G36A G55A: the self-cleavage is 0.09.

Regarding G36C U51A, the self-cleavage turned out to be 0.16.

For the variant G36C U51C, the self-cleavage turned out to be 0.39.

Take A35G A77C: the self-cleavage turned out to be 1.27.

Turning to A35G A77G, the self-cleavage was found to be 1.39.

A35G A77U: the self-cleavage stood at 1.28.

For the variant G36C U48C, the self-cleavage came to 0.4.

As to A35G U66A, the self-cleavage turned out to be 1.34.

Regarding A35G U66C, the self-cleavage turned out to be 1.17.

Take A35G U66G: the self-cleavage stood at 1.26.

A35G A64G: the self-cleavage was determined as 1.28.

On to A35G A64C, for which the self-cleavage worked out at 0.98.

Turning to A35G A64U, the self-cleavage stood at 1.12.

On to G36A U66C, for which the self-cleavage turned out to be 0.33.

As for G36A A75U, the self-cleavage worked out at 0.36.

With G36A A75C, the self-cleavage amounted to 0.28.

A35G G55C: the self-cleavage stood at 1.46.

As for A35G G55A, the self-cleavage stood at 1.23.

In the case of G36A U67C, the self-cleavage turned out to be 0.13.

G36U G61U: the self-cleavage was determined as 0.13.

Consider G36C A77G, for which the self-cleavage came to 0.29.

Take A35U A47G: the self-cleavage is 0.48.

For A35U A47U, the self-cleavage was found to be 0.26.

On to A35U A47C, for which the self-cleavage turned out to be 0.4.

As to G36U A65U, the self-cleavage worked out at 0.06.

Consider G36U A65G, for which the self-cleavage stood at 0.39.

Take G36C C38A: the self-cleavage was determined as 0.16.

With G36C C38U, the self-cleavage was 0.27.

As for A35G U69A, the self-cleavage is 1.22.

For the variant A35G U69C, the self-cleavage worked out at 1.2.

As for A35G U69G, the self-cleavage was 1.33.

With G36A A65G, the self-cleavage was determined as 0.17.

As to A35U G61U, the self-cleavage was 0.42.

In the case of A35U G61A, the self-cleavage came out at 0.27.

With A35U U49C, the self-cleavage came out at 0.27.

On to A35U U49A, for which the self-cleavage stood at 0.39.

Take A35U U76C: the self-cleavage turned out to be 0.52.

Consider A35U U76A, for which the self-cleavage was 0.65.

As for A35U, the self-cleavage was found to be 0.54.

Consider G36A U72A, for which the self-cleavage came to 0.26.

On to G36A U72C, for which the self-cleavage came to 0.25.

For the variant A35U C50A, the self-cleavage was determined as 0.43.

Turning to A35U U41C, the self-cleavage worked out at 0.5.

As to A35U U41G, the self-cleavage came to 0.32.

A35U U41A: the self-cleavage amounted to 0.3.

As to A35G C59U, the self-cleavage is 1.2.

Turning to A35G G70U, the self-cleavage turned out to be 0.78.

On to A35G G70A, for which the self-cleavage came out at 1.13.

Consider A35U G70A, for which the self-cleavage was 0.2.

As to A35U G70C, the self-cleavage came to 0.34.

Turning to A35G C81U, the self-cleavage worked out at 1.29.

A35G C81A: the self-cleavage was determined as 1.3.

G36U U41C: the self-cleavage was determined as 0.3.

With G36U U41A, the self-cleavage was found to be 0.29.

On to A35U U54C, for which the self-cleavage stood at 0.5.

A35U U54A: the self-cleavage is 0.55.

Consider A35U U54G, for which the self-cleavage is 0.58.

G36C U67C: the self-cleavage is 0.18.

On to A35U C79U, for which the self-cleavage turned out to be 0.64.

As for G36U U58C, the self-cleavage amounted to 0.53.

On to G36U A77G, for which the self-cleavage was determined as 0.12.

G36U A77U: the self-cleavage is 0.19.

On to A35G U78A, for which the self-cleavage came to 1.35.

Consider A35G U78C, for which the self-cleavage was 1.3.

As to A35G U78G, the self-cleavage was 1.29.

For the variant G36C A56G, the self-cleavage is 0.21.

For the variant G36C A56U, the self-cleavage came to 0.13.

In the case of A35U U69A, the self-cleavage turned out to be 0.26.

As for A35U U69G, the self-cleavage worked out at 0.26.

For the variant A35U U69C, the self-cleavage was 0.23.

Turning to A35G U60C, the self-cleavage was 1.03.

In the case of A35G U60A, the self-cleavage worked out at 1.14.

As to A35G U60G, the self-cleavage was 1.04.

Take A35G U67A: the self-cleavage was 1.2.

As to A35G U67C, the self-cleavage amounted to 0.56.

A35G U67G: the self-cleavage is 1.11.

For the variant G36C U72G, the self-cleavage came to 0.19.

Regarding G36U G73A, the self-cleavage was found to be 0.37.

As for G36A A57G, the self-cleavage came to 0.17.

For G36U U60C, the self-cleavage turned out to be 0.11.

Take A35U A57U: the self-cleavage was 0.2.

For A35U A57G, the self-cleavage worked out at 0.47.

For A35U A57C, the self-cleavage is 0.31.

On to A35U G63C, for which the self-cleavage came out at 0.45.

In the case of A35U G63A, the self-cleavage was 0.27.

As for A35U G63U, the self-cleavage worked out at 0.52.

In the case of G36C A64G, the self-cleavage was determined as 0.16.

For A35U A64U, the self-cleavage was determined as 0.48.

For the variant A35U A64G, the self-cleavage was determined as 0.39.

As to A35U A64C, the self-cleavage worked out at 0.16.

As for G36C U43C, the self-cleavage worked out at 0.28.

Turning to G36A U58A, the self-cleavage was found to be 0.13.

For the variant G36A U58C, the self-cleavage is 0.27.

G36A U58G: the self-cleavage turned out to be 0.19.

A35G C38A: the self-cleavage is 1.21.

For the variant A35G C38G, the self-cleavage came to 0.96.

Take A35G C38U: the self-cleavage worked out at 1.23.

Regarding A35U U43G, the self-cleavage was 0.15.

Take A35U U43C: the self-cleavage worked out at 0.35.

Turning to A35U U43A, the self-cleavage stood at 0.71.

As to G36U U69A, the self-cleavage stood at 0.2.

With G36U U69C, the self-cleavage came to 0.15.

For A35U C71U, the self-cleavage amounted to 0.37.

Take A35U C71A: the self-cleavage amounted to 0.13.

As for A35U C71G, the self-cleavage stood at 0.15.

Regarding A35G A75U, the self-cleavage stood at 1.27.

As to A35G A75C, the self-cleavage amounted to 1.25.

Consider A35G A75G, for which the self-cleavage came to 1.31.

In the case of A35U C59U, the self-cleavage worked out at 0.29.

Turning to A35U C59A, the self-cleavage came to 0.15.

With A35G G52A, the self-cleavage was 1.36.

As to A35G G52U, the self-cleavage was 1.36.

For the variant A35G G52C, the self-cleavage was determined as 1.27.

For the variant G36A A77C, the self-cleavage worked out at 0.48.

G36A A77G: the self-cleavage came out at 0.17.

For the variant G36C G61C, the self-cleavage was determined as 0.14.

As for G36C G61U, the self-cleavage was 0.12.

With A35U C37U, the self-cleavage amounted to 0.28.

With G36C U66C, the self-cleavage is 0.23.

For G36A U78C, the self-cleavage was determined as 0.23.

Consider G36C A57U, for which the self-cleavage is 0.13.

Take A35G A57U: the self-cleavage stood at 1.22.

A35G A57G: the self-cleavage came out at 1.27.

For the variant A35U A75C, the self-cleavage stood at 0.71.

Turning to A35U A75G, the self-cleavage is 0.58.

With A35U A75U, the self-cleavage is 0.56.

Consider A35G U72A, for which the self-cleavage came out at 1.22.

Take A35G U72G: the self-cleavage was 1.29.

For A35G U72C, the self-cleavage turned out to be 1.26.

For A35U C68A, the self-cleavage amounted to 0.11.

Consider G36U A47G, for which the self-cleavage came to 0.11.

For G36U A47U, the self-cleavage amounted to 0.08.

For the variant G36U U80A, the self-cleavage is 0.29.

In the case of G36U U80C, the self-cleavage stood at 0.46.

Take A35G U58A: the self-cleavage came out at 1.07.

In the case of A35G U58C, the self-cleavage was 1.23.

Turning to A35G U58G, the self-cleavage came to 1.09.

With G36C A45U, the self-cleavage stood at 0.14.

On to G36C A45G, for which the self-cleavage is 0.17.

Regarding A35G G53A, the self-cleavage came out at 1.33.

Regarding A35G G53U, the self-cleavage worked out at 1.27.

Take A35G C62A: the self-cleavage was found to be 0.52.

On to A35G C62G, for which the self-cleavage was 0.51.

On to A35G C62U, for which the self-cleavage amounted to 0.34.

With A35U G73A, the self-cleavage was determined as 0.88.

A35U A45G: the self-cleavage worked out at 0.32.

A35U A45C: the self-cleavage is 0.18.

On to A35U A45U, for which the self-cleavage worked out at 0.32.

With G36A G42U, the self-cleavage worked out at 0.13.

Regarding A35G U74A, the self-cleavage turned out to be 1.33.

With A35G U74G, the self-cleavage was 1.27.

Take A35G U74C: the self-cleavage is 1.29.

As to G36C U58C, the self-cleavage was 0.14.

(Values after the RNAGym collection of RNA variant scans (doi:10.1093/nar/gkz1192).)
